Legend:
[1] = target: T1, Neurotensin receptor NTS1 (HT29 cells/membranes) (human, UniProt P30989); assay: competition, HT29 membranes
[2] = target: T1, Neurotensin receptor NTS1 (HT29 …); assay: competition, HT29 cells

T1 sequence (P30989 whole entry): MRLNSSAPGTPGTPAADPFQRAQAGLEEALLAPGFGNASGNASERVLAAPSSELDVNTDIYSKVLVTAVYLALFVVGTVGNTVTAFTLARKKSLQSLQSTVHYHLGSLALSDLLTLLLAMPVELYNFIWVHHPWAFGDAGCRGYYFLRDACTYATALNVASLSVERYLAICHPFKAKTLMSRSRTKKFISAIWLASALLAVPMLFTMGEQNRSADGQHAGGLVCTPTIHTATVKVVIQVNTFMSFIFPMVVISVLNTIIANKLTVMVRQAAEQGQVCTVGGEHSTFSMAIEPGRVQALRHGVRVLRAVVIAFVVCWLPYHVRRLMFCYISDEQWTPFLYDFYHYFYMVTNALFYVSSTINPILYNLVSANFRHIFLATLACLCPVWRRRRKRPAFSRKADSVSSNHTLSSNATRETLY

| Binder | Ki [1] [nM] | IC50 [2] [nM] |
| --- | --- | --- |
| KPRRPYIL (not fully specified; N-methylated Pro7-Arg8 bond, Tle12; DTPA(In) at Lys6) [DTPA(In)-NT-20.3] | 2.24 | 15.9 |
| KPRRPYIL (not fully specified; N-methylated Pro7-Arg8 bond, Tle12; DOTA(In) at Lys6) [DOTA(In)-NT-20.3] | – | 14.9 |
| KPRRPYIL (not fully specified; N-methylated Pro7-Arg8 bond, Tle12; DOTA(Ga) at Lys6) [DOTA(Ga)-NT-20.3] | – | 13.9 |
| KPRRPYIL (not fully specified; N-methylated Pro7-Arg8 bond, Tle12; DOTA(Y) at Lys6) [DOTA(Y)-NT-20.3] | – | 7 |
| KPRRPYIL (NT(6-13) analogue, N-methylated Pro7-Arg8 bond, Tle12) [NT-20.3] | 0.16 | 2.2 |

From patent US20120207676 (published 2012)
